One protein from PMC8244335 (Current Research in Structural Biology, 2019) can be followed below.

Usually stoichiometry N stands for the number of molecules, sites or subunits per partner or assembly.

The series concerns the molecule itself. The experiment in a line: AUC.

“And” between values parts separate entries of the source, which are not always exact repeats. Equal entries are not always repeated.

B1: catalytically inactive S679A mutant of Escherichia coli (strain K12) LonA protease, full length (enzyme, E. coli (strain K12), UniProt P0A9M0 1-784, looked up)
chain: MNPERSERIEIPVLPLRDVVVYPHMVIPLFVGREKSIRCLEAAMDHDKKIMLVAQKEASTDEPGVNDLFTVGTVASILQMLKLPDGTVKVLVEGLQRARISALSDNGEHFSAKAEYLESPTIDEREQEVLVRTAISQFEGYIKLNKKIPPEVLTSLNSIDDPARLADTIAAHMPLKLADKQSVLEMSDVNERLEYLMAMMESEIDLLQVEKRIRNRVKKQMEKSQREYYLNEQMKAIQKELGEMDDAPDENEALKRKIDAAKMPKEAKEKAEAELQKLKMMSPMSAEATVVRGYIDWMVQVPWNARSKVKKDLRQAQEILDTDHYGLERVKDRILEYLAVQSRVNKIKGPILCLVGPPGVGKTSLGQSIAKATGRKYVRMALGGVRDEAEIRGHRRTYIGSMPGKLIQKMAKVGVKNPLFLLDEIDKMSSDMRGDPASALLEVLDPEQNVAFSDHYLEVDYDLSDVMFVATSNSMNIPAPLLDRMEVIRLSGYTEDEKLNIAKRHLLPKQIERNALKKGELTVDDSAIIGIIRYYTREAGVRGLEREISKLCRKAVKQLLLDKSLKHIEINGDNLHDYLGVQRFDYGRADNENRVGQVTGLAWTEVGGDLLTIETACVPGKGKLTYTGSLGEVMQESIQAALTVVRARAEKLGINPDFYEKRDIHVHVPEGATPKDGPAAGIAMCTALVSCLTGNPVRADVAMTGEITLRGQVLPIGGLKEKLLAAHRGGIKTVLIPFENKRDLEEIPDNVIADLDIHPVKRIEEVLTLALQNEPSGMQVVTAK
In the case of B1, the “stoichiometry N” value was 12 and 6.
